Laboratory results: paper PMC5736220

Molecular target: protocadherin-15 EC1+2 R113G, His-tagged (mouse), Q99PJ1
Experiment: thermal scanning (thermal stability shift assay with SYPRO orange); pcdh15 fixed at 0.1 mg/mL (~4 μM), cdh23 0.1 to 0.5 mg/mL (~4 to 20 μM; cdh23:pcdh15 1:1 to 5:1); SEC buffer (20 mM Tris-HCl pH 7.5, 150 mM KCl, 50 mM NaCl, 2 mM CaCl2); 10 to 95°C in 0.2°C steps, 5 s equilibration; read-out: shift of the Tm of pcdh15 (ΔTm)
Details: remark: other sources report otherwise

ΔTm of pcdh15 at cdh23:pcdh15 1:1: -0.6 °C | ΔTm of pcdh15 at cdh23:pcdh15 2:1: 0.2 °C | ΔTm of pcdh15 at cdh23:pcdh15 3:1: 1 °C | ΔTm of pcdh15 at cdh23:pcdh15 4:1: 1.3 °C | ΔTm of pcdh15 at cdh23:pcdh15 5:1: 1.5 °C
B1: cadherin-23 EC1+2, wild type, His-tagged, Q99PF4 24-228 (domain or fragment)
chain: QVNRLPFFTNHFFDTYLLISEDTPVGSSVTQLLARDMDNDPLVFGVSGEEASRFFAVEPDTGVVWLRQPLDRETKSEFTVEFSVSDHQGVITRKVNIQVGDVNDNAPTFHNQPYSVRIPENTPVGTPIFIVNATDPDLGAGGSVLYSFQPPSPFFAIDSARGIVTVIQELDYEVTQAYQLTVNATDQDKTRPLSTLANLAIIITD
